Test results taken from patent US20150175707.

Assay: HP-SEC as in Example 20; Fc:Fc self-oligomerization

Row | Substance | fraction oligomer (HP-SEC) | % multimeric (HP-SEC)
1 | IgG1-2F8-RGY (EGFR antibody 2F8 with E345R/E430G/S440Y) | IgG1-2F8-RGY (74.5%) | –
2 | IgG1-7D8-RGY (CD20 antibody 7D8 with E345R/E430G/S440Y) | IgG1-7D8-RGY (67.2%) | –
3 | IgG2-005-RGY (IgG2-005-E345R/E430G/S440Y) | – | IgG2-005-RGY (46.1% multimeric)
4 | IgG3-005-RGY | – | IgG3-005-RGY (37.8% multimeric)
5 | IgG4-005-RGY | – | IgG4-005-RGY (84.4% multimeric)
